Experimental data taken from patent US8981179B2, “Transgenic non-human animal and uses thereof” (Sanofi, priority 2009, dated 2015).

Molecular target: T1, prokineticin 2 receptor (PROK2R) (Mus musculus, UniProt Q8K458)
T1 construct: endogenous in cells; host or cells: primary cortical neurons, E18, CreLuc mouse lines (187 and others)
Experiment: Primary cortical neurons CreLuc luciferase assay, Gq modulation
Type: cell-based
From the text: A general schematic of the workflow for the isolation and compound treatment of primary neuronal cells from the CreLuc model is depicted in FIG. 9. Cortices or other brain subregions are removed from embryos, usually embryonic (E) day 17 or 18, but also as early as E14. The individual neurons are then isolated and plated onto 96 well assay plates. Assays are run either in triplicate or quadruplicate. The assays are run from day 3 in culture up until day 7 or day 10 in culture depending on the expression levels of the target GPCR. Compounds are added to the plates then at a set timepoint, Bright Glo (Promega, Cat #E2610) is added to the plates and the assay is then run on a TopCount or other luminometer.
Primary cell cultures from the CreLuc mice may be used to screen compounds that are capable of modulating Gs coupled receptors. The PROK2R is Gq coupled, therefore, prokineticin 2 (PROK2) which is an agonist for the PROK2R was used to see whether CreLuc mice would be responsive to Gq modulation. […]
The effects of PROK2 peptide on luciferase expression in primary cortical neurons from different CreLuc lines was examined. […] Lines were selected based on earlier experiments which determined inducible luciferase levels in whole brain extracts (data not shown). […] BrightGlo was used for the assay and read on a TopCount. […]

T1 sequence (Q8K458 whole entry): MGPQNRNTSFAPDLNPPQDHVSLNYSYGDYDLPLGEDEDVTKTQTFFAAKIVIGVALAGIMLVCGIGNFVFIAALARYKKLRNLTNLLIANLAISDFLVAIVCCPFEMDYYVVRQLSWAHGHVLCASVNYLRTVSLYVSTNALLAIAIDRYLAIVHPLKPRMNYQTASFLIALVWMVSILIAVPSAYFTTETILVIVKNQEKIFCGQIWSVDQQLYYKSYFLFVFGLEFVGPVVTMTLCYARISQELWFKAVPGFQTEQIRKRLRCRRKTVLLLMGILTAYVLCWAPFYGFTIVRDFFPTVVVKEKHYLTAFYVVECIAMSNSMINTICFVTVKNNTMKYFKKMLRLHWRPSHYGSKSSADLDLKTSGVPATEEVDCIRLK

B1: PROK2: prokineticin 2 peptide (Peprotech), agonist for the PROK2R (protein)
chain: AVITGACDKDSQCGGGMCCAVSIWVKSIRICTPMGKLGDSCHPLTRKVPFFGRRMHHTCPCLPGLACLRTSFNRFICLAQK
luciferase levels vs media only control (cortical neurons line 187, day 3, 1 nM and 100 nM, 4 hours and 8 hours): Highly significant increases
luciferase levels in cortical neurons from different CreLuc lines (lines 219 and 175, 1 nM and 100 nM, 4 hours and 24 hours): Statistically significant increases
